Source: FireProtDB (doi:10.1110/ps.051838206)
Values joined by “and” are separate entries in the source; they are usually repeats but may differ in a detail not shown here. Identical values can stand only once.

Conditions: Pseudomonas aeruginosa (strain ATCC 15692 / DSM 22644 / CIP 104116 / JCM 14847 / LMG 12228 / 1C / PRS 101 / PAO1); pH 7; 25 °C; GdnHCl; Fluorescence; Tris-HCl 100 mM; reversible: Yes; whole UniProt chain shown

B1: Azurin wild type, P00282 (protein)
chain: MLRKLAAVSLLSLLSAPLLAAECSVDIQGNDQMQFNTNAITVDKSCKQFTVNLSHPGNLPKNVMGHNWVLSTAADMQGVVTDGMASGLDKDYLKPDDSRVIAHTKLIGSGEKDSVTFDVSKLKEGEQYMFFCTFPGHSALMKGTLTLK
unfolding free energy: 5.98 kcal/mol and 12.9 kcal/mol
